Laboratory results published in patent US9889183B2, “PKC activators and anticoagulant in regimen for treating stroke” (BLANCHETTE ROCKEFELLER NEUROSCIENCES INSTITUTE, priority 2010, dated 2018).

Tested on: ischemic stroke (middle cerebral artery occlusion) in rats
Assay: Focal ischemia (MCAO) model of stroke
Assay type: in vivo, rat
Conditions: rTPA 6 hours after the stroke, without subsequent bryostatin; rats
Experimental: A transient animal model of focal ischemia was used for these experiments. The middle cerebral artery (MCA) was surgically dissected and occluded in anesthetized rats by ligature, followed by reperfusion after a defined period (about 2 hours). Animal models transient ischemia via occlusion of the MCA (MCAO) are well-known and described in, e.g., Sicard and Fisher, Exp. & Transl. Stroke Med. (2009), vol. 1, pp. 1-7.

B1: rTPA: recombinant tissue plasminogen activator, thrombolytic serine protease (protein, UniProt P00750 36-562, looked up)
Tissue-type plasminogen …: SYQVICRDEKTQMIYQQHQSWLRPVLRSNRVEYCWCNSGRAQCHSVPVKSCSEPRCFNGGTCQQALYFSDFVCQCPEGFAGKCCEIDTRATCYEDQGISYRGTWSTAESGAECTNWNSSALAQKPYSGRRPDAIRLGLGNHNYCRNPDRDSKPWCYVFKAGKYSSEFCSTPACSEGNSDCYFGNGSAYRGTHSLTESGASCLPWNSMILIGKVYTAQNPSAQALGLGKHNYCRNPDGDAKPWCHVLKNRRLTWEYCDVPSCSTCGLRQYSQPQFRIKGGLFADIASHPWQAAIFAKHRRSPGERFLCGGILISSCWILSAAHCFQERFPPHHLTVILGRTYRVVPGEEEQKFEVEKYIVHKEFDDDTYDNDIALLQLKSDSSRCAQESSVVRTVCLPPADLQLPDWTECELSGYGKHEALSPFYSERLKEAHVRLYPSSRCTSQHLLNRTVTDNMLCAGDTRSGGPQANLHDACQGDSGGPLVCLNDGRMTLVGIISWGLGCGQKDVPGVYTKVTNYLDWIRDNMRP
- mortality: 44%
